We go through 5 molecules from patent US20240150433A1, “ERT2 MUTANTS AND USES THEREOF” (Senti Biosciences, Inc., priority 2021, published 2024).

For series [1] the following is noted: following a typical clinical dose of tamoxifen; cited from earlier work.
For series [2], the system named is U87MG:1066 cells. Put plainly: ERT2 mutant validation in U87MG with mCherry reporter. In kind it is cell-based. The settings on record: validation screen versus wild-type ERT2. The method, then: About 16 hours before transduction 100k U87MG:1066 cells were seeded into 16 wells in 12 well plate format. During transduction, cells in each well were transduced with 100k pg of virus of ERT2 variant constructs. After transduction, cells were split in to 50k cells per well in a 24 well plate format, and treated with drug-free media or a range of endoxifen or 4-OHT drug conditions. About two days after treatment of cells with endoxifen or 4-OHT, cells were collected and mCherry reporter expression was quantified by flow cytometry.
Screening of the ERT2 mutant library identified a subset of ERT2 variants that were sensitive to endoxifen at 1 nM. Among this subset, 15 variants (Table 19) were validated in U87MG cells for their ability to activate an mCherry reporter (SB01066; FIG. 14B) at a range of concentrations of 0 pM, 10 pM, 50 pM, 100 pM, and 1 nM of endoxifen (FIG. 15A) and 4-OHT (FIG. 15B). Expression of mCherry was quantified about 24 hours after treatment with endoxifen or 4-OHT.
Select ERT2 variants (Table 20) from the previous screens were further tested for sensitivity to endoxifen and 4-OHT, compared to wild-type ERT2. […] Fold activation was calculated by gMFI mCherry levels of each test condition divided by gMFI mCherry levels of U87MG cells transduced with the reporter (SB01066).

The subject of series [3] is NK cells. Put plainly: Validation of ERT2 mutants with mCherry reporter in NK cells. In kind it is cell-based. The note with it: primary NK cells, mCherry by flow cytometry. As for the experimental part: After 10 days of feeder cell activation, NK cells were co-transduced with ERT2 mutant virus and reporter SB01066 virus (Experimental Set-up 1). On Day 2 after transduction, transduced NK cells were treated with endoxifen or 4-OHT at a range of concentrations of 0 nM, 0.01 nM, 0.1 nM, 1 nM, and 10 nM. On Day 4, cells were checked for mCherry expression by flow cytometry.
Background: A flow cytometer gives signals particle by particle.

Take `CC/C(=C(\c1ccccc1)c1ccc(OCCN(C)C)cc1)c1ccccc1` [tamoxifen]: the “average peak plasma concentration” value in series [1] is given as “approximately 40 ng/mL”.

B1: wild-type ERT2: ER-LBD with G400V/M543A/L544A/V595A (SEQ ID NO: 3), benchmark construct ZF10-1_p65_ERT2 wild-type (protein)
chain: SAGDMRAANLWPSPLMIKRSKKNSLALSLTADQMVSALLDAEPPILYSEYDPTRPFSEASMMGLLTNLADRELVHMINWAKRVPGFVDLTLHDQVHLLECAWLEILMIGLVWRSMEHPVKLLFAPNLLLDRNQGKCVEGMVEIFDMLLATSSRFRMMNLQGEEFVCLKSIILLNSGVYTFLSSTLKSLEEKDHIHRVLDKITDTLIHLMAKAGLTLQQQHQRLAQLLLILSHIRHMSNKGMEHLYSMKCKNVVPLYDLLLEAADAHRLHAPTSRGGASVEETDQSHLATAGSTSSHSLQKYYITGEAEGFPATA
With B1, in series [2], the “4-OHT concentration at which mCherry expression is activated” value is “about 25 nM” and the “endoxifen concentration at which mCherry expression is activated” value is on record as “about 25 nM”.

B2: SB06142: ZF10-1_p65_ERT2 variant L354I/L391V/N413D/M421L/S463P/M517A/H524L (protein)
chain: SAGDMRAANLWPSPLMIKRSKKNSLALSLTADQMVSALLDAEPPILYSEYDPTRPFSEASMMGLLTNLADREIVHMINWAKRVPGFVDLTLHDQVHLLECAWLEILMIGVVWRSMEHPVKLLFAPNLLLDRDQGKCVEGLVEIFDMLLATSSRFRMMNLQGEEFVCLKSIILLNSGVYTFLPSTLKSLEEKDHIHRVLDKITDTLIHLMAKAGLTLQQQHQRLAQLLLILSHIRHASNKGMELLYSMKCKNVVPLYDLLLEAADAHRLHAPTSRGGASVEETDQSHLATAGSTSSHSLQKYYITGEAEGFPATA
Consider B2, for which, in series [3], the “4-OHT concentration at which variant was sensitive” value is given as 0.1 nM and the “endoxifen concentration at which variant was sensitive” value stood at 0.1 nM.

B3: SB06145: ZF10-1_p65_ERT2 variant L409V/N413D/Q414E/M421L/S463P/H524L (protein)
chain: SAGDMRAANLWPSPLMIKRSKKNSLALSLTADQMVSALLDAEPPILYSEYDPTRPFSEASMMGLLTNLADRELVHMINWAKRVPGFVDLTLHDQVHLLECAWLEILMIGLVWRSMEHPVKLLFAPNLVLDRDEGKCVEGLVEIFDMLLATSSRFRMMNLQGEEFVCLKSIILLNSGVYTFLPSTLKSLEEKDHIHRVLDKITDTLIHLMAKAGLTLQQQHQRLAQLLLILSHIRHMSNKGMELLYSMKCKNVVPLYDLLLEAADAHRLHAPTSRGGASVEETDQSHLATAGSTSSHSLQKYYITGEAEGFPATA
As to B3, in series [3], the “4-OHT concentration at which variant was sensitive” value stood at 0.1 nM and the “endoxifen concentration at which variant was sensitive” value is reported as 0.1 nM.

B4: SB06136: ZF10-1_p65_ERT2 variant L384M/L391V/N413D/M421L/S463P/H524L (protein)
chain: SAGDMRAANLWPSPLMIKRSKKNSLALSLTADQMVSALLDAEPPILYSEYDPTRPFSEASMMGLLTNLADRELVHMINWAKRVPGFVDLTLHDQVHLLECAWMEILMIGVVWRSMEHPVKLLFAPNLLLDRDQGKCVEGLVEIFDMLLATSSRFRMMNLQGEEFVCLKSIILLNSGVYTFLPSTLKSLEEKDHIHRVLDKITDTLIHLMAKAGLTLQQQHQRLAQLLLILSHIRHMSNKGMELLYSMKCKNVVPLYDLLLEAADAHRLHAPTSRGGASVEETDQSHLATAGSTSSHSLQKYYITGEAEGFPATA
In the case of B4, in series [3], the “4-OHT concentration at which variant was sensitive” value is 0.1 nM and the “endoxifen concentration at which variant was sensitive” value is recorded as 0.1 nM.
